Laboratory results reported in US20150203577A1 (Chugai, published 2015).
Positions count from the first letter of the chain named.

T1: mouse FcγRII (mouse, UniProt P08101 30-210)
T1 construct: Extracellular domain with C-terminal His tag; also called mFcγRII; mFcgRII
T1 sequence: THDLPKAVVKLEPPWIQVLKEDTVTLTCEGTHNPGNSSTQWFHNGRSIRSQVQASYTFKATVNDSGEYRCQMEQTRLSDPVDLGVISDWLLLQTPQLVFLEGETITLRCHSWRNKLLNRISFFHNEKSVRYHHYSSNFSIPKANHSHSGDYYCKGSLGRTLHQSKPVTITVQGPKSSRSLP

T2: mouse FcγRIII (mouse, UniProt P08508 31-215)
T2 construct: Extracellular domain with C-terminal His tag; also called mFcγRIII; mFcgRIII
T2 chain: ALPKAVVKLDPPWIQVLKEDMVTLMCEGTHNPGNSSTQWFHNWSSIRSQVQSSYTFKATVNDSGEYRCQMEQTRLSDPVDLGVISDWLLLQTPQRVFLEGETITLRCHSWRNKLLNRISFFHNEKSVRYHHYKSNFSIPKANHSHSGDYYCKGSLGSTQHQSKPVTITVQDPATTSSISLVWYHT

B1: MB750 (antibody, mouse IgG1, kappa)
heavy: QVQLQESGPGLVKPSETLSLTCAVSGHSISHDHAWSWVRQPPGEGLEWIGFISYSGITNYNPSLQGRVTISRDNSKNTLYLQMNSLRAEDTAVYYCARSLARTTAMDYWGEGTLVTVSSAKTTPPSVYPLAPGSAAQTNSMVTLGCLVKGYFPEPVTVTWNSGSLSSGVHTFPAVLQSDLYTLSSSVTVPSSTWPSETVTCNVAHPASSTKVDKKIVPRDCGCKPCICEPNEVELVFIFPPKPKDVLTITLTPKVTCVVVDISKDDPEVQFSWFVDDVEVHTAQTQPREEQFNSTFRSVSELPIMHQDWLNGKEFKCRVNSDAFPAPIEKTISKTKGRPKAPQVYTIPPPKEQMAKDKVSLTCMITDFFPEDITVEWQWNGQPAENYKNTQPIMDTDGSYFVYSKLNVQKSNWEAGNTFTCSVLHEGLHNHHTEKSLSHSPGK
light: not shown
notes: CH name; VH H237 + CH, L chain MRAL-k0; copies: 2 + 2
B2: MB767 (antibody, mouse IgG1, kappa)
heavy: B1 heavy with D322A, A326G
light: not shown
notes: as for B1
B3: MB762 (antibody, mouse IgG1, kappa)
heavy: B1 heavy with F292E, D322A
light: not shown
notes: as for B1
B4: MB766 (antibody, mouse IgG1, kappa)
heavy: B1 heavy with N320M, D322A
light: not shown
notes: as for B1
B5: MB771 (antibody, mouse IgG1, kappa)
heavy: B1 heavy with D322A, P327Y
light: not shown
notes: as for B1
B6: MB752 (antibody, mouse IgG1, kappa)
heavy: B1 heavy with S294L, D322A
light: not shown
notes: as for B1
B7: MB763 (antibody, mouse IgG1, kappa)
heavy: B1 heavy with F292N, D322A
light: not shown
notes: as for B1
B8: MB761 (antibody, mouse IgG1, kappa)
heavy: B1 heavy with S294M, N320D, D322A, K330R
light: not shown
notes: as for B1
B9: MB755 (antibody, mouse IgG1, kappa)
heavy: B1 heavy with S294L, N320D, D322A
light: not shown
notes: as for B1
B10: MB756 (antibody, mouse IgG1, kappa)
heavy: B1 heavy with S294L, D322A, K330R
light: not shown
notes: as for B1
B11: MB751 (antibody, mouse IgG1, kappa)
heavy: B1 heavy with D322A, K330R
light: not shown
notes: as for B1
B12: MB765 (antibody, mouse IgG1, kappa)
heavy: B1 heavy with N320L, D322A
light: not shown
notes: as for B1
B13: MB759 (antibody, mouse IgG1, kappa)
heavy: B1 heavy with N320D, D322A, K330R
light: not shown
notes: as for B1
B14: MB753 (antibody, mouse IgG1, kappa)
heavy: B1 heavy with S294M, D322A
light: not shown
notes: as for B1
B15: MB748 (antibody, mouse IgG1, kappa)
heavy: B1 heavy with S263A, D322A
light: not shown
notes: as for B1
B16: MB757 (antibody, mouse IgG1, kappa)
heavy: B1 heavy with S294M, N320D, D322A
light: not shown
notes: as for B1
B17: MB769 (antibody, mouse IgG1, kappa)
heavy: B1 heavy with D322A, P327D
light: not shown
notes: as for B1
B18: MB760 (antibody, mouse IgG1, kappa)
heavy: B1 heavy with S294L, N320D, D322A, K330R
light: not shown
notes: as for B1
B19: MB749 (antibody, mouse IgG1, kappa)
heavy: B1 heavy with Q291L, D322A
light: not shown
notes: as for B1
B20: MB758 (antibody, mouse IgG1, kappa)
heavy: B1 heavy with S294M, D322A, K330R
light: not shown
notes: as for B1
B21: MB770 (antibody, mouse IgG1, kappa)
heavy: B1 heavy with D322A, P327F
light: not shown
notes: as for B1
B22: MB768 (antibody, mouse IgG1, kappa)
heavy: B1 heavy with D322A, A326Q
light: not shown
notes: as for B1
B23: MB754 (antibody, mouse IgG1, kappa)
heavy: B1 heavy with N320D, D322A
light: not shown
notes: as for B1
B24: MB764 (antibody, mouse IgG1, kappa)
heavy: B1 heavy with F292T, D322A
light: not shown
notes: as for B1

These binders were tested against T1, mouse FcγRII (assay: SPR (Biacore T200); KD of H237-MB630/MRAL-k0 / KD of variant).
Description: (§1) The antibody H chain variable region used was the variable region H237 (SEQ ID NO: 1) of the H chain VH3-IgG1 of the anti-IL-6 receptor antibody Fv4-IgG1 described in WO2009/125825. The antibody L chain commonly used was the L chain MRAL-k0 (SEQ ID NO: 2) of the anti-IL-6 receptor antibody tocilizumab. […] These variants were expressed and purified by the method of Reference Example 1 and evaluated for their binding to mFcγRII and mFcγRIII by the method of Reference Example 2 using Biacore T200.
(§2) Each altered antibody was analyzed for its interaction with each Fcγ receptor prepared above using Biacore T100 (GE Healthcare Japan Corp.), Biacore T200 (GE Healthcare Japan Corp.), Biacore A100, or Biacore 4000. The running buffer used was HBS-EP+ (GE Healthcare Japan Corp.). The assay temperature was set to 25° C. The sensor chips used were chips prepared by immobilizing Protein L (ACTIGEN or BioVision) onto Series S Sensor Chip CM5 (GE Healthcare Japan Corp.) or Series S Sensor Chip CM4 (GE Healthcare Japan Corp.) by the amine coupling method.
(§3) In order to calculate the KD value of each altered antibody for FcγR, kinetic analysis was conducted according to the following method: first, the antibody of interest was captured onto any of these chips and allowed to interact with mFcγR diluted with a running buffer. For the obtained sensorgram, the assay results were globally fit into the 1:1 Langmuir binding model using Biacore Evaluation Software to calculate an association rate constant ka (L/mol/s) and a dissociation rate constant kd (1/s). From these values, the dissociation constant KD (mol/L) was calculated.

| Relative mFcγRII-binding activity (MB630 = 1) [fold] | Binder |
| --- | --- |
| 1.77 | B1 |
| 0.16 | B2 |
| 0.4 | B3 |
| 1.29 | B4 |
| 1.27 | B5 |
| 0.36 | B6 |
| 0.31 | B7 |
| 0.81 | B8 |
| 0.45 | B9 |
| 0.64 | B10 |
| 1.53 | B11 |
| 0.49 | B12 |
| 2.03 | B13 |
| 0.34 | B14 |
| 0.7 | B15 |
| 0.46 | B16 |
| 0.31 | B17 |
| 0.85 | B18 |
| 1.52 | B19 |
| 0.59 | B20 |
| 1.23 | B21 |
| 0.5 | B22 |
| 1.26 | B23 |
| 0.23 | B24 |

Target: T2, mouse FcγRIII
Assay: as above
Description: as §1, §2, §3

| Relative mFcγRIII-binding activity (MB630 = 1) [fold] | Binder |
| --- | --- |
| 2.06 | B1 |
| 0.19 | B2 |
| 0.51 | B3 |
| 1.55 | B4 |
| 1.53 | B5 |
| 0.44 | B6 |
| 0.41 | B7 |
| 0.92 | B8 |
| 0.58 | B9 |
| 1.09 | B10 |
| 1.63 | B11 |
| 0.64 | B12 |
| 2.25 | B13 |
| 0.34 | B14 |
| 0.7 | B15 |
| 0.45 | B16 |
| 0.38 | B17 |
| 1.42 | B18 |
| 1.96 | B19 |
| 0.69 | B20 |
| 1.4 | B21 |
| 0.81 | B22 |
| 1.28 | B23 |
| 0.32 | B24 |

Each binder was assayed against T1, mouse FcγRII (assay: SPR (Biacore T200); KD of H237-mIgG1/MRAL-k0 / KD of variant).
Description: as §1, §2

| relative mFcγRII-binding activity (mIgG1 = 1) [fold] | Binder |
| --- | --- |
| 29.4 | B1 |
| 1.8 | B2 |
| 4.4 | B3 |
| 14 | B4 |
| 13.8 | B5 |
| 6 | B6 |
| 3.4 | B7 |
| 13.4 | B8 |
| 7.6 | B9 |
| 10.6 | B10 |
| 25.4 | B11 |
| 5.3 | B12 |
| 33.8 | B13 |
| 5.7 | B14 |
| 11.7 | B15 |
| 7.6 | B16 |
| 3.3 | B17 |
| 14.1 | B18 |
| 25.3 | B19 |
| 9.8 | B20 |
| 13.3 | B21 |
| 5.4 | B22 |
| 21 | B23 |
| 2.5 | B24 |

Target: T2, mouse FcγRIII
Assay: as above
Description: as §1, §2

| relative mFcγRIII-binding activity (mIgG1 = 1) [fold] | Binder |
| --- | --- |
| 0.4 | B1 |
| 0.03 | B2 |
| 0.09 | B3 |
| 0.27 | B4 |
| 0.26 | B5 |
| 0.09 | B6 |
| 0.07 | B7 |
| 0.18 | B8 |
| 0.11 | B9 |
| 0.21 | B10 |
| 0.32 | B11 |
| 0.11 | B12 |
| 0.44 | B13 |
| 0.07 | B14 |
| 0.14 | B15 |
| 0.09 | B16 |
| 0.06 | B17 |
| 0.28 | B18 |
| 0.38 | B19 |
| 0.13 | B20 |
| 0.24 | B21 |
| 0.14 | B22 |
| 0.25 | B23 |
| 0.05 | B24 |
